The target in the test is FLAG-tagged WT RPTPα (WT-RPTPA, NM 008980.2, C-terminal FLAG) (mouse) (UniProt P18052). In words: FLIM-FRET, anti-HA A488 donor with anti-FLAG A568 acceptor; unquenched donor around 2.4 ns.
Chain of FLAG-tagged WT RPTPα (WT-RPTPA, NM 008980.2, C-terminal FLAG) (mouse) (P18052 20-829 limits assumed): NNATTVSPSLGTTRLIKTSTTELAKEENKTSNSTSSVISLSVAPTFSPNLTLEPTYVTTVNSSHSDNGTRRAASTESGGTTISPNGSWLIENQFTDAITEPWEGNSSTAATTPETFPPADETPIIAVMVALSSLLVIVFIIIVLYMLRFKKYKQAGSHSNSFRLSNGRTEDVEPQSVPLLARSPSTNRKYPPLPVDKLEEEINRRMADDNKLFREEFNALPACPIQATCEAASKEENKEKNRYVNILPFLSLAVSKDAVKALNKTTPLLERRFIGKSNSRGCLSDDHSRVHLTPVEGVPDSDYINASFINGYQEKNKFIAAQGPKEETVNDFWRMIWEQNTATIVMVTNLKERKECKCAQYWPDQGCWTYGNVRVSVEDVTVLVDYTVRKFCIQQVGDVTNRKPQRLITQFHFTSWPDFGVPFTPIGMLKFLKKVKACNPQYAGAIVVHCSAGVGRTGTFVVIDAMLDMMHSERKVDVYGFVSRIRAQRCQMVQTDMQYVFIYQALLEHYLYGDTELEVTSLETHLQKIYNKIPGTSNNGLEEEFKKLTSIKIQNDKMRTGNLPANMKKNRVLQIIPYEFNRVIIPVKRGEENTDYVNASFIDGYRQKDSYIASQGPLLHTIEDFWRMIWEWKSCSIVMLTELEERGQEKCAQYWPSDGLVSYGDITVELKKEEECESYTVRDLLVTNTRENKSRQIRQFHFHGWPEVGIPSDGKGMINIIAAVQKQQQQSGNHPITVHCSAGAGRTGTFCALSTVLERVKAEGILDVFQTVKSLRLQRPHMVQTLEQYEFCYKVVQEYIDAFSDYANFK

Chain of HA-tagged WT RPTPα (WT-RPTPA, NM 008980.2, C-terminal HA) (P18052 20-829): as the sequence (P18052 20-829 limits assumed) above

Substance “HA-tagged WT RPTPα (WT-RPTPA, NM 008980.2, C-terminal HA) (from UniProt P18052 20-829) (receptor)” gave a donor fluorescence lifetime of quenched (H-FRET) population of 1.15 ns.

(Values after patent publication US20250092156A1.)
